The record followed here is patent publication US20240327505A1 (published 2024).

Assay in all cases: cell-based or functional assay
In assay [1] the target is SARS-CoV-2 "Alpha" UK B.1.1.7 full-length Spike protein on pseudovirus (SARS-CoV-2, UniProt P0DTC2 14-1273).
For assay [2], the target named is SARS-CoV-2 "Beta" SA B.1.351 full-length Spike protein on pseudovirus (SARS-CoV-2, UniProt P0DTC2 14-1273).
Assay [3] addresses SARS-CoV-2 "Gamma" Brazil P.1.B.1.1.28 full-length Spike protein on pseudovirus (SARS-CoV-2, UniProt P0DTC2 14-1273).
Assay [4] deals with SARS-CoV-2 "Delta-plus" B.1.617.2.1 full-length Spike protein on pseudovirus (SARS-CoV-2, UniProt P0DTC2 14-1273).
Assay [5] deals with SARS-CoV-2 "Epsilon" B.1.427/9 full-length Spike protein on pseudovirus (SARS-CoV-2, UniProt P0DTC2 14-1273).
Assay [6] concerns the target SARS-CoV-2 "Delta" B.1.617.2 full-length Spike protein on pseudovirus (SARS-CoV-2, UniProt P0DTC2 14-1273).

B1: AB-009270 (antibody, V domains shown)
VH: QMQLVQSGPEVKKPGTSVKVSCKASGFTFTSSAMQWVRQARGQRLEWIGWIVVGSGNTNYAQKFQERVTITRDMSTSTAYMELSSLRSEDTAVYYCAVNYCSSTSCYDAFDIWGQGTMVTVSS
VL: not shown
Consider B1, for which the “Pseudovirus Neturalization” value in assay [1] came to 0.117 µg/mL; in assay [2] it was 0.169 µg/mL; in assay [3], 0.158 µg/mL; in assay [4], 0.012 µg/mL; in assay [5], 0.032 µg/mL; in assay [6], 0.03 µg/mL.

B2: AB-010021 (antibody, V domains shown)
VH: QMQLVQSGPEVKKPGTSVKVSCKASGFTFTSSAVQWVRQARGQRLEWIGWIVVGSGNTNYAQKFQERVTITRDMSTSTAYMELSSLRSEDTAVYYCAAVYCSGGSCLDAFDIWGQGTMVTVSS
VL: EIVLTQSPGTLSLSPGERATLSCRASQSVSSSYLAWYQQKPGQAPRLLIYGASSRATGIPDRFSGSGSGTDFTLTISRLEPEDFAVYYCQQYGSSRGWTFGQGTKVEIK
notes: also called AB-0010021
B2: the “Pseudovirus Neturalization” value in assay [1] came to 2.69 µg/mL; in assay [2], 8.27 µg/mL; in assay [3], 5.39 µg/mL; in assay [4], 0.078 µg/mL; in assay [5], 0.629 µg/mL; in assay [6], 0.574 µg/mL.

B3: AB-010020 (antibody, V domains shown)
VH: QMQLVQSGPEVKKPGTSVKVSCKASGFTFTSSAVQWVRQARGQRLEWIGWIVVGSGNTNYAQKFQERVTITRDMSTSTAYMELSSLRSEDTAVYYCAAPACSSTSCYDGFDIWGQGTMVTVSS
VL: not shown
As to B3, the “Pseudovirus Neturalization” value came out at 0.013 µg/mL in assay [1]; 0.018 µg/mL in assay [2]; 0.0114 µg/mL in assay [3]; 0.001 µg/mL in assay [4]; 0.003 µg/mL in assay [5]; 0.003 µg/mL in assay [6].

B4: AB-009661 (antibody, V domains shown)
VH: QVQLVESGGGVVQPGRSLRLSCAASGFTFSSYGMHWVRQAPGKGLEWVAVISYDGSNKYYADSVKGRFTISRDNSKNTLYLQMNSLRAEDTAVYYCAKDYGDYGGMDVWGQGTTVTVSS
VL: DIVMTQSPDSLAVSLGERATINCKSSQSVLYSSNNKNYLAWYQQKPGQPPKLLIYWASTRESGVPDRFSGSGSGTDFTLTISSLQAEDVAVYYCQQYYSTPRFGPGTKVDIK
B4: the “Pseudovirus Neturalization” value in assay [1], in assay [2], in assay [3], in assay [4], in assay [5] and in assay [6] was over 50 µg/mL each time.

B5: AB-009281 (antibody, V domains shown)
VH: EVQLVETGGGLIQPGGSLRLSCAASGFTVSSNYMSWVRQAPGKGLEWVSVIYSGGSTYYADSVKGRFTISRDNSKNTLYLQMNSLRAEDTAVYYCARDLYYYGMDVWGQGTTVTVSS
VL: DIQLTQSPSFLSASVGDRVTITCRASQGISSYLAWYQQKPGKAPKLLIYAASTLQSGVPSRFSGSGSGTEFTLTISSLQPEDFATYYCQQLNSYPTFGQGTKVEIK
As for B5, the “Pseudovirus Neturalization” value was over 50 µg/mL in assay [1]; over 50 µg/mL in assay [2]; over 50 µg/mL in assay [3]; 2.29 µg/mL in assay [4]; 0.041 µg/mL in assay [5]; 0.032 µg/mL in assay [6].

B6: AB-009613 (antibody, V domains shown)
VH: EVQLVESGGGLIQPGGSLRLSCAASGFTVSSNYMSWVRQAPGKGLEWVSVIYSGGSTYYADSVKGRFTISRDNSKNTLYLQMNSLRAEDTAVYYCARDYGDFYFDYWGQGTLVTVSS
VL: not shown
Turning to B6, the “Pseudovirus Neturalization” value was 7.23 µg/mL in assay [1]; over 50 µg/mL in assay [2]; over 50 µg/mL in assay [3]; over 50 µg/mL in assay [4]; 1.16 µg/mL in assay [5]; 0.101 µg/mL in assay [6].

B7: AB-009271 (antibody, V domains shown)
VH: EVQLVESGGGLIQPGGSLRLSCAASGFIVSSNYMSWVRQAPGKGLEWVSVIYSGGSTYYADSVKGRFTISRDNSKNTLYLQMNSLRAEDTAVYYCARDYGDFYFDYWGQGTLVTVSS
VL: EIVMTQSPATLSVSPGERATLSCRASQSVSSNLAWYQQKPGQAPRLLIYGASTRATGIPARFSGSGSGTEFTLTISSLQSEDFAVYYCQQYYNWPRTFGQGTKVEIK
Regarding B7, the “Pseudovirus Neturalization” value in assay [1] is 0.275 µg/mL; in assay [2] it was over 50 µg/mL; in assay [3], over 50 µg/mL; in assay [4], over 50 µg/mL; in assay [5] it was 0.028 µg/mL; in assay [6] it was 0.012 µg/mL.

B8: AB-009769 (antibody, V domains shown)
VH: EVQLVESGGGLVQPGGSLRLSCAASGFTFSSYWMSWVRQAPGKGLEWVANIKQDGSEKYYVDSVKGRFTISRDNAKNSLYLQMNSLRAEDTAVYYCARSPEVLWFGDPVLDNWFDPWGQGTLVTVSS
VL: SYELTQPPSVSVSPGQTARITCSGDALPKQYAYWYQQKPGQAPVLVIYKDSERPSGIPERFSGSSSGTTVTLTISGVQAEDEADYYCQSADSSGTYPVVFGGGTKLTVL
Take B8: the “Pseudovirus Neturalization” value in assay [1], in assay [2], in assay [3], in assay [4], in assay [5] and in assay [6] was over 50 µg/mL each time.

B9: AB-009615 (antibody, V domains shown)
VH: QVQLVESGGGVVQPGRSLRLSCAASGFTFSSYGMHWVRQAPGKGLEWVAVIWYDGSNKYYADSVKGRFTISRDNSKNTLYLQMNSLRAEDTAVYYCAKVGSPYCSGGSCYSGYFDYWGQGTLVTVSS
VL: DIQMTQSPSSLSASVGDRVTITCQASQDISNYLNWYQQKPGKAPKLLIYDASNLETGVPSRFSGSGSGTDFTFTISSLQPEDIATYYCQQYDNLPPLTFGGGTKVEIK
Consider B9, for which the “Pseudovirus Neturalization” value was over 50 µg/mL in assay [1]; over 50 µg/mL in assay [2]; over 50 µg/mL in assay [3]; over 50 µg/mL in assay [4]; 38.4 µg/mL in assay [5]; over 50 µg/mL in assay [6].

B10: AB-009610 (antibody, V domains shown)
VH: QVQLVQSGAEVKKPGSSVKVSCKASGGTFSNYAISWVRQAPGQGLEWMGRIIPILGIANYAQKFQGRVTITADKSTSTAYMELSSLRSEDTAVYYCATTPYYYDSSGYYLDYWGQGTLVTVSS
VL: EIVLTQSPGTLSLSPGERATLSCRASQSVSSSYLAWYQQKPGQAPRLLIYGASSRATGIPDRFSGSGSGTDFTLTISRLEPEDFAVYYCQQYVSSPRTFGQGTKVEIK
Regarding B10, the “Pseudovirus Neturalization” value in assay [1] was 2.84 µg/mL; in assay [2], over 50 µg/mL; in assay [3] it was over 50 µg/mL; in assay [4] it was over 50 µg/mL; in assay [5], over 50 µg/mL; in assay [6], over 50 µg/mL.

B11: AB-009760 (antibody, V domains shown)
VH: EVQLVQSGAEVKKPGESLKISCKGSGYSFTSYWIGWVRQMPGKGLEWMGIIYPGDSDTRYSPSFQGQVTISADKSISTAYLQWSSLKASDTAMYYCARSRSSDYFDYWGQGTLVTVSS
VL: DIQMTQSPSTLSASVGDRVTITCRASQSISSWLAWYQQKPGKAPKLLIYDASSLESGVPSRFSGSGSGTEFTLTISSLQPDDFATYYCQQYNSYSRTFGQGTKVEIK
Take B11: the “Pseudovirus Neturalization” value was 17.7 µg/mL in assay [1]; over 50 µg/mL in assay [2]; 19.2 µg/mL in assay [3]; 46.2 µg/mL in assay [4]; 14.1 µg/mL in assay [5]; over 50 µg/mL in assay [6].

B12: AB-009346 (antibody, V domains shown)
VH: EVQLVESGGGVVRPGGSLRLSCAASGFTFDDYGMSWVRQAPGKGLEWVSGINWNGGSTGYADSVKGRFTISRDNAKNSLYLQMNSLRAEDTALYYCARWPLLGISGYYHYYMDVWGKGTTVTVSS
VL: QSALTQPRSVSGSPGQSVTISCTGTSSDVGGYNYVSWYQQHPGKAPKLMIYDVSKRPSGVPDRFSGSKSGNTASLTISGLQAEDEADYYCCSYAGSYTLLFGGGTKLIVL
Turning to B12, the “Pseudovirus Neturalization” value in assay [1] is 0.114 µg/mL; in assay [2], over 50 µg/mL; in assay [3] it was over 50 µg/mL; in assay [4], over 50 µg/mL; in assay [5], 33.6 µg/mL; in assay [6] it was over 50 µg/mL.

B13: AB-009734 (antibody, V domains shown)
VH: QVHLVQSGAEVKTPGASVRVSCKASGYTFTSHYMHWVRQAPGQGLEWMGLINPSGSGTAYPQHFQGRVTMTRDTSTTTDYMDLSSLRSEDTAMYFCARMERSGAFDLWGQGTMVTVSS
VL: EIVLTQSPGTLSLSPGERATLSCRASQTISSRYLAWYYQKPGQAPRLLIQGSSIRATGIPDRFSGSGSGTDFTLTISRLEPEDFAVYYCQHYGSSPPMYTFGQGTKLEIK
Consider B13, for which the “Pseudovirus Neturalization” value is over 50 µg/mL in assay [1]; over 50 µg/mL in assay [2]; 40.6 µg/mL in assay [3]; over 50 µg/mL in assay [4]; over 50 µg/mL in assay [5]; over 50 µg/mL in assay [6].

B14: AB-009614 (antibody, V domains shown)
VH: QVQLVESGGGVVQPGRSLRLSCAASGFTFSSYGMHWVRQAPGKGLEWVAVISYDGSNKYYADSVKGRFTISRDNSKNTLYLQMNSLRAEDTAVYYCAKDQKYYDILTGYYRSTYYYYYYGMDVWGQGTTVTVSS
VL: not shown
Turning to B14, the “Pseudovirus Neturalization” value is over 50 µg/mL in assay [1]; over 50 µg/mL in assay [2]; over 50 µg/mL in assay [3]; over 50 µg/mL in assay [4]; over 50 µg/mL in assay [5]; 31.3 µg/mL in assay [6].

B15: AB-009620 (antibody, V domains shown)
VH: QITLKESGPTLVKPTQTLTLTCTFSGFSLSTSGVGVGWIRQPPGKALEWLALIYWDDDKRYSPSLKSRLTITKDTSKNQVVLTMTNMDPVDTATYYCAHHEVATVFDYWGQGTLVTVSS
VL: QSALTQPASVSGSPGQSITISCTGTSSDVGAYNYVSWYQQHPGKAPKLMIYEVSNRPSGVSNRFSGSKSGNTASLTISGLQAEDEADYYCSSYTSSSTVFGGGTKLTVL
For the molecule B15, the “Pseudovirus Neturalization” value in assay [1] was 0.257 µg/mL; in assay [2] it was 0.563 µg/mL; in assay [3], 0.327 µg/mL; in assay [4] it was 0.809 µg/mL; in assay [5], 0.974 µg/mL; in assay [6], 0.519 µg/mL.
